Reference: article PMC6628914 (Frontiers in Immunology, 2019)

Biological target: T1, HIV-1 JRFL envelope (Env, gp120-gp41) on HIV-1 JRFL pseudovirions (HIV-1 JR-FL, UniProt Q75760, strain)
T1 construct: also called HIV-1 JRFL virions; tier-2 JRFL pseudovirus; copies: 3 + 3
Test: FRET or BRET + other: fluorescence correlation spectroscopy (FRET-FCS); all reactants in solution; donor (Alexa 488) and acceptor (Alexa 568) labelled Fabs with virions at 10 μg/ml (about 1.5 virions in the 1 fL focal volume); FRET bursts and diffusion coefficient of the acceptor channel (6 μm^2/s for virion-bound Fab)
Conditions: one partner purified

B1: 2G12 Fab, Alexa 488- or Alexa 568-labelled (Fab, V domains shown)
VH: EVQLVESGGGLVKAGGSLILSCGVSNFRISAHTMNWVRRVPGGGLEWVASISTSSTYRDYADAVKGRFTVSRDDLEDFVYLQMHKMRVEDTAIYYCARKGSDRLSDNDPFDAWGPGTVVTVSP
VL: DVVMTQSPSTLSASVGDTITITCRASQSIETWLAWYQQKPGKAPKLLIYKASTLKTGVPSRFSGSGSGTEFTLTISGLQFDDFATYHCQHYAGYSATFGQGTRVEIK
  binding result: binds
